Experimental findings from the DeepSol protein solubility set are described below.

A short description of the data set: soluble on expression in E. coli; label from the status in PepcDB or PDB records.
For the sequence “MSLAETLEKNAIDKSEYPQTAELENRCVNILADLWNAPKDMSYLGTSTVGSSEACMLGGLAMKFRWRNNAEKRGLDIQAKRPNLIISSGYQVCWEKFCVYWDVDMRVVPMDKNHLSLDVDKVFDLVDEYTIGVVGILGITYTGKFDDIQLLDEKVEAYNETNEHQLVIHIDGASGAMFTPFVNPELPWDFRLKNVVSINTSGHKYGLVYPGVGWILWKDKEYLPKELIFEVSYLGGSMPTMAINFSRSASQIIGQYYNFLRYGFEGYREIHEKTKKTAIYLAKTVEKSGYFEIINDGANLPIVCYKMKEGLDVEWTLYDLADQLLMKGWQVPAYPLPADLSDTIIQRFVCRADLGYNVAEEFAADFADAIHNLEHARVLYHDKERNDSYGFTHEGHHHHHH”, the “soluble on expression in E. coli” value is “soluble”.
As for “MLRRRTFLSWSSGKDSAWALHVLRQDPHVDVIGLFCTVNKVFDRVVMHGVRVALLQQQAESAGLPLHIIEIPYPCSNDEYASAMSAFVDSARKENIECFAFGDLLLEDVRQYREDRLNGTGITPIFPLWGIPTKTLSREMVAGGLKAVITCIDPKRIPESFAGREYNESFLDDIPGSVDPCGEYGEFHTFSFDGPMFQNPIDVVLGETVHRDGFVFTDLLSLTSSTEPTH”, the “soluble on expression in E. coli” value was “not soluble”.
For “MKHTLPDLPFDYADLEPVISHEIMQLHHQKHHATYVNNLNQIEEKLHEAVSKGNLKEAIALQPALKFNGGGHINHSIFWTNLAKDGGEPSKELMDTIKRDFGSLDNLQKRLSDITIAVQGSGWGWLGYCKKDKILKIATCANQDPLEGMVPLFGIDVWEHAYYLQYKNVRPDYVHAIWKIANWKNISERFANARQ” the value was “soluble”; for “GSHMSQLYASLFYQRDVTEIFSDRALVSYMVEAEVALAQAQAQVGVIPQSAATVIQRAAKTAIDKIDFDALATATGLAGNIAIPFVKQLTAIVKDADEDAARYVHWGATSQDILDTACILQCRDALAIVQNQVQQCYETALSQAQTYRHQVMMGRTWLQQALPITLGHKLARWASAFKRDLDRINAIKARVLVAQLGGAVGSLASLQDQGSIVVEAYAKQLKLGQTACTWHGERDRIVEIASVLGIITGNVGKMARDWSLMMQTEIAEVFEPTAKGRGGSSTMPHKRNPVAAASVLAAANRVPALMSSIYQSMVQEHERSLGAWHAEWLSLPEIFQLTAGALERTLDVLKGMEVNAENMHQNIECTHGLIMAEAVMMALAPHMGRLNAHHVVEAACKTAVAEQKHLKDIISQVDEVKQYFNPSQLDEIFKPESYLGNIQDQIDAVLQEAKGEAK”, “soluble”; for “MAIIYAVRERTQSKTAMRKVMDYVVQDKKTMYENENGQRCKLVSGQNCCGDTAFKEFMTTKRQYQKEKGVYFYQYIQSFKPGIHATPQEIHQMGVELAKYFKGYEVQIATHIDRDHWHNHLIVNSVSCETGLKLQFNEKNLEQLRTLSDEICAVHGLDTLKPYQKPKQKPMGAGEYRAAVRGGSYKFKLMNAIDQAMTQSRTREEFIVRMEQMGYQVKWNPHHKYITYTTPEGQRCRDNKLHETKYLKTEMEGYFSAKLRRIEAAQQAGYTGGHPTGTTPADRSSALSAAGQRNTHRPMEHDAGEPDRSHTAVAGIDGIHIHPANRRRRKQYDEELLPERLRQADGSPVEYHTERASADYGEYDFEYGEDDGYDWMEADEYTGALGRKAPAPGHVAHKNESQMGRHRGIDFDDIVALAKAVDDLVNPYNPEEEREKKKKYVPKSDHKKQKKKQHHNHDYELSL”, “soluble”.
Consider “MKVSTKDKIIESAVMLFNQKGFSGTSVREIAKSADVNVAHISYYFKGKGGLMEHLVSEFYEGYSKTLETAASNISTQSTQEQLLQLVFDILSYQHNHRQLTRFVYREVTIDSTLIREIMSTYLMKEKYIFQLIIEEGEKQREYLTLPLPHFILQLKSLLMMPYLQPQYISEVLYMQPHEPYFYKMYFEEIKIWIRSVFRTGDVALTN”, for which the “soluble on expression in E. coli” value was “not soluble”.
As for “MSLRKKIAAFGEVMMRLQVPGYELLSQANTLNYSFSGTGVNVVAALSHLGHEGLLISTLPENSVGDAAVSYIQKLGIQTSLVSRGGKYVGMYFLENGFGARASRVTYSNRLESSFNTASEEIYQFEEIAKEIDIVHFCGITLAMNDTVRHHMKSLARAVKENGGTVVFDCNYRPSLWGEDGYEQAKPHYEEMLGLADIVMMNEKDAMFVLGIKTEETEREAQLVDLIPKVAETYHIATIAGTHRSINSDNTHSLRGFICKDGTFTFAKTLTFSVYDRIGAGDAYTSGIIHGEIKEFAPEKAVSFASAAGMLAHTIVGDTPMSSEKDILRAMTASVGDVEREGHHHHHH”, the “soluble on expression in E. coli” value is recorded as “soluble”.
For “MGHHHHHHSHMEKRKPTIQNIEVSDHTAELSLRVDADILDFQGHFSHFPLLPGVTQIDWALFYAVQYLNTPKVFKGMEVIKFQEPILPNADVCLSLSWDNEREKLTFKYTSKNGETLVTHSSGKMKLGESRE” the value was “soluble”; for “MADSEADKPLRKISAAFKKLAIIVNSPNPEVPVTQFSHACSLVSPLFGCLGIAFKFAEMDYVAKVDDLVRASSSISTLVVMMDKDIEADCVRKAGSHTRNLLRVKRGLDMVKVLFEQIIASEGDNSLKDPATKSYAQVFAPHHGWAIRKAVSLGMYALPTRAHLLNMLKEDEAAAKIHMQSYVNSSAPLITYLDNLFLSKQLGIDW”, “not soluble”; for “MGSDKIHHHHHHMMKAQFTLTPSESKRLIAKGVKALPILRKALQNHTIILAGGTTNGFLVEELLNETLAEKTRYTVGLIADGKTGESKEEQRIPPFIIAKGKALDRSLHWKDFLPQLEPGDVFIKGGNALDSTGLAAVLVSNSMAGTIGAALGPLYARGVRLVVPIGLEKLIPDVREAVEFMASAPADTALGAKTGLVPMLGATVVTEITALETLYQVTAKCIGAGGVAGSEGAVTLVIEGEAAEVESALSLIQSCKGEPPVR”, “not soluble”.
For the sequence “MGSDKIHHHHHHVEDLKNLTNQAVEKQPEIVKRFNEMIDSQHLSHAYLLTGAGGIGKKDVAQWVAMRLFCIDLQGSMPCGECEECTRIMSGQHPDVVEIAPDGQSIKVEQVRFLKSEFSKSGVEGARKVFIIEQANKMTTSAANSLLKFIEEPSGEVTAFLLAENRSLMLPTIVSRTEIIELKPLPKDRLIKELTEQNIAETDARILTRLTNDMSEIQTLVDNNWILDAHKALEKWFITATTGDITAFVDVQTRVMALAKDRFYQEKILDLMMLYAMDLLELKFDQETITYEANRRQLQELADQTNVRQLLAVADVLLPLKHQLSQNLNFQSVVEKATIKICNIFKMRGR”, the “soluble on expression in E. coli” value is reported as “not soluble”.
For the sequence “MGSDKIHHHHHHMKKGILIETDNVTRLRAAVKQAEDTERGRPGMVAVWGEAGAGKTIAAHSLYAQRGGVFLRAMEGMSQHAFLQELCWEVKGTRPHGSHRCRADILRALEEEPATVYVDEADRLDLRRLEDLRDIHDITGCPVVLIGEQHLPGKLAERTRIDDRIPEEYRVPFSGITPRDVSLFALEAAEIVLTPGAAGLIHKQAKGNFRRIHNLMLSVESAARAHDTTEVDEALVRAAMPAARSSASRAPRRGQHA”, the “soluble on expression in E. coli” value is reported as “not soluble”.
As to “MGLKLDLTWFDKSTEDFKGEEYSKDFGDDGSVMESLGVPFKDNVNNGCFDVIAEWVPLLQPYFNHQIDISDNEYFVSFDYRDGDW”, the “soluble on expression in E. coli” value is listed as “soluble”.
For “SNAMKPENKIPVLTRLSDEMTAVVNFQQPGLPPWPADGDIETQRQYYLLERRFWNADAPSMTTRTCAVPTPYGDVTTRLYSPQPTSQATLYYLHGGGFILGNLDTHDRIMRLLARYTGCTVIGIDYSLSPQARYPQAIEETVAVCSYFSQHADEYSLNVEKIGFAGDSAGAMLALASALWLRDKHIRCGNVIAILLWYGLYGLQDSVSRRLFGGAWDGLTREDLDMYEKAYLRNDEDRESPWYCLFNNDLTRDVPPCFIASAEFDPLIDDSRLLHQTLQAHQQPCEYKMYPGTLHAFLHYSRMMTIADDALQDGARFFMARMKTPR” the value was “soluble”; for “MDLLSLKTVTTLSDCVTIAEQDQVKIVRVIHDKASAAISLHGGHVLSFQPKGQADLLWMSSQAIYDGKAALRGGIPVCWPWFGRIAAPAHGFARNQEWKLIEHREIEQGVIVTLGLQATPESLAIWPYQFDVRLHVEIRESLTVTLDVTNTDSKAWTFSGALHTYLHVGDIRETQTSGVGTEYIDSLQNSRLCTQHGLLTLTDTIDRVYTQPEPLITVQDPALARTLTVENQGHNSAVLWNPWQQGAQSMADMNDEGYLHFLCVESTLHAPSLAEGITLQPGQNHQLVTQITSQAQ”, “not soluble”.
Regarding “MSLTERLSPVEIMGALVAFPTVSRDTNLPLVDWVETYLAGHGITAHRWVDPEQPHKAALFAHVGPWEEGAVVLSGHTDVVPIDGQPWDSDPFTVVERDGKYFGRGTCDMKGFDALAIWALVEGRYRDLKRPLQLALSFDEEVGCTGAPPMIVEMQNHLPKGSAVIVGEPSMMQAVTGHKGGFGYDTRVLGFEVHSSIMHTGVNAIMAAAPLIDWANHRNAENRAATPSALAAMFDPPWTTCHVGMISGGTAHNITAKECRFAMDFRIVPGEAKERWRDAYFAVAREVEAQMQAVHPEARIDLSEQFHVPPLVPEQEGEAEMLVRALTGDNAGHVVSYGTEAGQFQEAGYSAVICGPGDIAQAHQPNEFITVAQFDAGHGFMARLLDRLSEGHHHHHH”, the “soluble on expression in E. coli” value is “soluble”.
Then “MGHHHHHHSHMLINARISVRSYPKYQRFSFFYALLFKRIDLILAQSKEDKKRLLNLGAKKVVDFLNIKRFSKPVITSFYPKNPSALNIVLASTHEGEEELGLKAFLELKKTFKNARLIVVPRHPERFKSVQDLLQNTLKTTPFSWECFSSKGFVECDILLVDSLGELNNFYQIADIVILGGSFVKMGGHNPLEPAFFNARLITGEYIFNQVALFELVKPYKIVPKEDLLDALLDYKNLGMARFLENGHDLNELLAFIKH”, with “not soluble”.
For “MKKFSSLFRSFMHFQLTLVKPLTRRSRPIELGRLNCTEPVSSNFGFERGRPIDRYYINIFLSQNTNDVRGRVLEISDNGYTKRLGGKKVKQSDVLHAVEGNPKATIVSDITKADNIPSDSFDCIILTQTLQFIYDTKSAVRHLHRILKPNGVLLATMSGISQISRYDMDHWGEYWRFTTASAKQLFEEEFLPENIEVKAYGNVLSSTAFLYGLAVEDLKTEQLDYHDPNYQMLVTVRAVKADKQLEHHHHHH” the value was “not soluble”; for “MDELTAFNQCLAWLTHTTALPEHLDGLVLCGNSLPATATAAGQLAQDYQLPLLIIAGGVGHATKYLRQNLNLPKSQASEAELMATLVRKTGYQGSIRLDKTSTNTGSNATHARALAPTDWRHVLLVQDPLLARRTTLTFSANWSNANFIRYAPATLQLNRLQPMQFTPNTIVAGWQPAYFTELLLGEFQRLVDTPTGYGPRGQGFIAHVDIPEEVLAAARYLQSQSLHRQRLEHHHHHH”, “soluble”.
